# Paper PMC8766848, “The Structural Basis of Babesia orientalis Lactate Dehydrogenase” (Frontiers in Cellular and Infection Microbiology, 2022)
# How the values were obtained:
# [1] = substrate: C[C@H](O)C(=O)O; experiment: purified protein; conditions: NAD+
# [2] = substrate: NC(=O)c1ccc[n+]([C@@H]2O[C@H](COP(=O)([O-])OP(=O)(O)OC[C@H]3O[C@@H](n4cnc5c(N)ncnc54)[C@H](O)[C@@H]3O)[C@@H](O)[C@H]2O)c1; experiment: purified protein; conditions: varied: cofactor
# [3] = substrate: CC(=O)C(=O)O; experiment: purified protein; format: biochemical, Babesia orientalis; conditions: NADH
# [4] = substrate: NC(=O)C1=CN([C@@H]2O[C@H](COP(=O)(O)OP(=O)(O)OC[C@H]3O[C@@H](n4cnc5c(N)ncnc54)[C@H](O)[C@@H]3O)[C@@H](O)[C@H]2O)C=CC1; experiment: purified protein; format: biochemical, Babesia orientalis; conditions: varied: cofactor
# [5] = substrate: CC(=O)c1ccc[n+]([C@@H]2O[C@H](COP(=O)([O-])OP(=O)(O)OC[C@H]3O[C@@H](n4cnc5c(N)ncnc54)[C@H](O)[C@@H]3O)[C@@H](O)[C@H]2O)c1; experiment: enzyme kinetics (Km), used as synthetic cofactor, lactate to pyruvate; format: biochemical, Babesia orientalis; conditions: varied: cofactor
# Excerpt: enzyme kinetics (Km), used as synthetic cofactor, lactate to pyruvate on Babesia orientalis lactate dehydrogenase (BoLDH) | BoLDH catalyzes the conversion of lactate to pyruvate using synthetic APAD^+ instead of NAD^+ as a cofactor
protein,measurement,setting,value
"Babesia orientalis lactate dehydrogenase (BoLDH) (Babesia orientalis) (protein, full-length ORF (330 residues), N-terminal His6 tag, recombinant rBoLDH) MLKGFLSTMSPAVRRNKISLIGAGNIGGVMAYLAQLKELGDVVLFDIAPKLGEAKALDIMHANAIYDTAHKAIGTANYEDIADSDVCIITAGLAKLPNKKDEEWSRDDLVAPNSKIMFTIGDNIKKYAPNAFVICITNPLDVMVKMLLKATGFPKNKVVGMGGLLDSSRMCHYIADKLNVNPRYVHGSCIGGHGDSMIPLVNHVTVNGIPIQLFVERGDITQAELDKIAQRTIGSGMELVQLYGNGSAYFAPATAAIEMASAYLNDKKSVIVCSCYLEGEYGHSDVYLGTPAIIGANGIEKIITLKLSSEEQAKLDASVKEIMRLEALAG",Km,[1],166 ± 24.2 µM
same,kcat,[1],30.5 s⁻¹
same,kcat/Km,[1],184000 M⁻¹ s⁻¹
same,Km,[2],493 ± 69.2 µM
same,kcat,[2],21.5 s⁻¹
same,kcat/Km,[2],43600 M⁻¹ s⁻¹
same,Km,[3],102 ± 19.2 µM
same,kcat,[3],56.5 s⁻¹
same,kcat/Km,[3],554000 M⁻¹ s⁻¹
same,Km,[4],126 ± 19.9 µM
same,kcat,[4],115 s⁻¹
same,kcat/Km,[4],913000 M⁻¹ s⁻¹
same,Km,[5],395 ± 49.9 µM
same,kcat,[5],62.3 s⁻¹
same,kcat/Km,[5],157000 M⁻¹ s⁻¹
